Here are results for 20 molecules from patent publication US20110262529A1.

A value given as a limit tells only on which side of the number the result lay.

For the first assay, the target named is HLA-A*0201 (human), P04439.
Experiment: not given
Molecule VLGSLAATV (modifications not checked) [pp1a-4219] displayed a BL50 (half-maximal binding level) of 53.3 µM.
On the same count and under the same terms, the same measure for YLSSVLLAL (modifications not checked) [pp1a-1652]: 6.7 µM; for LLCVLAALV (modifications not checked) [pp1a-2755]: 187 µM; for VLAWLYAAV (modifications not checked) [pp1a-3444]: 53 µM.
Molecule FLNRFTTTL (modifications not checked) [pp1a-3459] came in with a BL50 (half-maximal binding level) of 39.6 µM.
On the same count and under the same terms, the same measure for MLSRALKKV (modifications not checked) [pp1a-1288]: 65.1 µM; for VLLSVLQQL (modifications not checked) [pp1a-3848]: 102 µM.
Same read-out and setting: the same measure for TLGVLVPHV (modifications not checked) [pp1a-103]: 3.1 µM.
Same read-out and setting: the same measure for ALSGVFCGV (modifications not checked) [pp1a-2990]: 6.2 µM; for SLQVCVQTV (modifications not checked) [pp1a-1139]: 4.9 µM; for QLSLPVLQV (modifications not checked) [pp1a-15]: 75.7 µM.
Molecule MLLTFLTSL (modifications not checked) [pp1a-3560] returned a BL50 (half-maximal binding level) of 47.1 µM.
As for CLDAGINYV (modifications not checked) [pp1a-2187], the BL50 (half-maximal binding level) stood at 3 µM.
The molecule TLNEDLLEI (modifications not checked) [pp1a-445] showed a BL50 (half-maximal binding level) of 19.2 µM.
As to FLITGVFDI (modifications not checked) [pp1a-651], the BL50 (half-maximal binding level) stood at 8.4 µM.
KLNIKLLGI (modifications not checked) [pp1a-3816] showed a BL50 (half-maximal binding level) of 68.1 µM.
As for AMWLLLLSI (modifications not checked) [pp1a-2207], the BL50 (half-maximal binding level) was 323 µM.
Molecule LLFITGNTL (modifications not checked) [pp1a-3745] had a BL50 (half-maximal binding level) of 154 µM.
On the same count and under the same terms, to FLLPSLATV (modifications not checked) [pp1a-3616] belongs 31.8 µM.
The same measure, in the same setting: to KLSAGVEFL (modifications not checked) [pp1a-634] belongs 59.8 µM.

The next assay addresses HLA-A*0201 (human), P04439. In words: T2 cell HLA-A*0201 stabilisation, affinity category by BL50.
As for VLGSLAATV (modifications not checked) [pp1a-4219], the BL50 is below 100 µM.
Take YLSSVLLAL (modifications not checked) [pp1a-1652]: the BL50 was below 100 µM.
As for LLCVLAALV (modifications not checked) [pp1a-2755], the BL50 was in the range of 100 to 200 µM.
The molecule MLSRALKKV (modifications not checked) [pp1a-1288] returned a BL50 below 100 µM.
Still for that read-out and setting: to VLLSVLQQL (modifications not checked) [pp1a-3848] belongs 100 to 200 µM.
TLGVLVPHV (modifications not checked) [pp1a-103] displayed a BL50 below 100 µM.
ALSGVFCGV (modifications not checked) [pp1a-2990] displayed a BL50 below 100 µM.
On the same count and under the same terms, to SLQVCVQTV (modifications not checked) [pp1a-1139] belongs below 100 µM.
Still for that read-out and setting: to QLSLPVLQV (modifications not checked) [pp1a-15] belongs below 100 µM.
Consider MLLTFLTSL (modifications not checked) [pp1a-3560], for which the BL50 is below 100 µM.
CLDAGINYV (modifications not checked) [pp1a-2187] returned a BL50 below 100 µM.
In the case of KLNIKLLGI (modifications not checked) [pp1a-3816], the BL50 is below 100 µM.
With LLFITGNTL (modifications not checked) [pp1a-3745], the BL50 fell in the range of 100 to 200 µM.
For KLSAGVEFL (modifications not checked) [pp1a-634], the BL50 was below 100 µM.
